What follows are molecules tested on PPO-deficient BT3 E. coli (ΔPPO) (assay: PPO-inhibiting herbicide tolerance test of PPO variants in E. coli (growth on herbicide-containing LB agar)). Settings: CyPPO19 variants in BT3 (ΔPPO) E. coli; LB agar with 0 to 2,000 μM herbicide, 37° C., dark, 16-20 hours.
Assay type: cell-based
Excerpt: To enhance the PPO-inhibiting herbicide resistance of CyPPO19 and CyPPO18, PPO variant genes of the above example 2 were constructed. They were transformed to BT3 (ΔPPO) strain which is deficient of PPO activity and cultured in LB media with PPO-inhibiting herbicide, thereby examining whether growth of transformed BT3 was not inhibited.
BT3 competent cells were transformed with the pET303-CyPPO19 (wild type), pET303-CyPPO18 (wild type) plasmids, and those with a mutation(s) constructed (refer to example 2) via heat shock method, and were cultured in LB agar media containing ampicillin.
Single colony transformed with each CyPPO gene was cultured in 3 mL of LB broth (LPSS) containing ampicillin for more than 12 hours, and then was subcultured in LB broth until absorbance (OD600) reached 0.5 to 1. Then, it was diluted with LB broth to OD600=0.5. Again, the diluted solution was serially diluted 4 times by a factor of one tenth.
The LB agar media (LB 25 g/L, Bacto agar 12 g/L) containing ampicillin (100 μg/mL) and 0 to 2,000 μM of various herbicides were prepared. Herbicide solution stocks were all prepared in DMSO.
Then, 10 μL of each diluted solution of E. coli was dropped on the plate and cultured at 37° C. under dark for 16-20 hours. PPO-inhibiting herbicide resistance was evaluated with the extent of E. coli growth containing each gene was observed.
The extent of herbicide resistance was evaluated by the relative growth of variants to that of wild type, and listed in Tables 9 and 10 and FIGS. 3 to 32.
In Tables 9 and 10, the tolerance level of variants showing equivalent resistance to wild type was presented as ‘−’, and was done as ‘+’ per each 10-fold resistance until ‘+++++’ as maximal resistance.
FIGS. 3 to 30 and FIGS. 31 and 32 show the transformed E. coli growth result of CyPPO19 WT and its variants and CyPPO18 WT and its variants, respectively. The concentrations of herbicides were written above the photographs of tolerance test. A 10-fold dilution series of spots were shown from OD600=0.5 of the leftmost spot to OD600=0.00005 of the rightmost one.

Molecule | tolerance level relative to wild type, Carfentrazone | tolerance level relative to wild type, Flumioxazin | tolerance level relative to wild type, Fomesafen | tolerance level relative to wild type, Oxyfluorfen | tolerance level relative to wild type, Saflufenacil | tolerance level relative to wild type, Sulfentrazone | tolerance level relative to wild type, Tiafenacil
CyPPO19 R89A + V305M + F360T: variant of CyPPO19 PPO protein (SEQ ID NO: 1) (protein, Synthetic_PPO of Thermosynechococcus elongatus PKUAC-SCTE542 (comprising GenBank No. CP032152.1)) MSEVDVAIVGGGLSGLSLAWRLQQSAPQYSVVLLEASDRLGGNITTQTAEGFVWELGPNSFAPTPALLQLIAEVGLQSELIRGDRHLPAYIYWRGQLYPLQPTRPLALATSNLLSPWGKVRAALGALGFVPPYLGSGDESVNSFFRRHLGQEVAERLVAPFVSGVYAGDPQQLSAAAAFRRIAQLEKLGGGLIAGALHLRRQQAPKPKPPTSVQMRPGELGSFKEGLAALPRAIAQQLKAPIHLQTPVQEITPDPKGGYLLRSGEQTWRARSVVLATPAYQTAELVAPFQPAIARVLATIPYPTMACVVLAYPAGLGRSVRPGFGVLIPRSQGIRTLGTIWSSCLFPQRTPAGWQVFTSTIGGATDPDLASLSEEAIVQQVQQDLNRLLDLPAAKARLLGMKVWRRAIPQYMVGYPEQWQQVTHALSQTPGLFLCSNYAEGVALGDRVEHGNRTAAAVAAYLSGGQP | ++ (‘+’ per each 10-fold resistance) | +++++ (until ‘+++++’ as maximal resistance) | +++ (‘+’ per each 10-fold resistance) | +++ (‘+’ per each 10-fold resistance) | +++++ (until ‘+++++’ as maximal resistance) | +++++ (until ‘+++++’ as maximal resistance) | +++++ (until ‘+++++’ as maximal resistance)
CyPPO19 R89A + L327T + F360I: variant of CyPPO19 PPO protein (SEQ ID NO: 1) (protein, Synthetic_PPO of Thermosynechococcus elongatus PKUAC-SCTE542 (comprising GenBank No. CP032152.1)) MSEVDVAIVGGGLSGLSLAWRLQQSAPQYSVVLLEASDRLGGNITTQTAEGFVWELGPNSFAPTPALLQLIAEVGLQSELIRGDRHLPAYIYWRGQLYPLQPTRPLALATSNLLSPWGKVRAALGALGFVPPYLGSGDESVNSFFRRHLGQEVAERLVAPFVSGVYAGDPQQLSAAAAFRRIAQLEKLGGGLIAGALHLRRQQAPKPKPPTSVQMRPGELGSFKEGLAALPRAIAQQLKAPIHLQTPVQEITPDPKGGYLLRSGEQTWRARSVVLATPAYQTAELVAPFQPAIARVLATIPYPTVACVVLAYPAGLGRSVRPGFGVTIPRSQGIRTLGTIWSSCLFPQRTPAGWQVFTSIIGGATDPDLASLSEEAIVQQVQQDLNRLLDLPAAKARLLGMKVWRRAIPQYMVGYPEQWQQVTHALSQTPGLFLCSNYAEGVALGDRVEHGNRTAAAVAAYLSGGQP | + (‘+’ per each 10-fold resistance) | ++++ (‘+’ per each 10-fold resistance) | ++ (‘+’ per each 10-fold resistance) | + (‘+’ per each 10-fold resistance) | ++ (‘+’ per each 10-fold resistance) | +++ (‘+’ per each 10-fold resistance) | ++++ (‘+’ per each 10-fold resistance)
CyPPO19 R89A + L327T + F360M: variant of CyPPO19 PPO protein (SEQ ID NO: 1) (protein, Synthetic_PPO of Thermosynechococcus elongatus PKUAC-SCTE542 (comprising GenBank No. CP032152.1)) MSEVDVAIVGGGLSGLSLAWRLQQSAPQYSVVLLEASDRLGGNITTQTAEGFVWELGPNSFAPTPALLQLIAEVGLQSELIRGDRHLPAYIYWRGQLYPLQPTRPLALATSNLLSPWGKVRAALGALGFVPPYLGSGDESVNSFFRRHLGQEVAERLVAPFVSGVYAGDPQQLSAAAAFRRIAQLEKLGGGLIAGALHLRRQQAPKPKPPTSVQMRPGELGSFKEGLAALPRAIAQQLKAPIHLQTPVQEITPDPKGGYLLRSGEQTWRARSVVLATPAYQTAELVAPFQPAIARVLATIPYPTVACVVLAYPAGLGRSVRPGFGVTIPRSQGIRTLGTIWSSCLFPQRTPAGWQVFTSMIGGATDPDLASLSEEAIVQQVQQDLNRLLDLPAAKARLLGMKVWRRAIPQYMVGYPEQWQQVTHALSQTPGLFLCSNYAEGVALGDRVEHGNRTAAAVAAYLSGGQP | + (‘+’ per each 10-fold resistance) | ++++ (‘+’ per each 10-fold resistance) | +++ (‘+’ per each 10-fold resistance) | ++ (‘+’ per each 10-fold resistance) | ++ (‘+’ per each 10-fold resistance) | ++ (‘+’ per each 10-fold resistance) | +++ (‘+’ per each 10-fold resistance)
CyPPO19 R89A + L327T + F360T: variant of CyPPO19 PPO protein (SEQ ID NO: 1) (protein, Synthetic_PPO of Thermosynechococcus elongatus PKUAC-SCTE542 (comprising GenBank No. CP032152.1)) MSEVDVAIVGGGLSGLSLAWRLQQSAPQYSVVLLEASDRLGGNITTQTAEGFVWELGPNSFAPTPALLQLIAEVGLQSELIRGDRHLPAYIYWRGQLYPLQPTRPLALATSNLLSPWGKVRAALGALGFVPPYLGSGDESVNSFFRRHLGQEVAERLVAPFVSGVYAGDPQQLSAAAAFRRIAQLEKLGGGLIAGALHLRRQQAPKPKPPTSVQMRPGELGSFKEGLAALPRAIAQQLKAPIHLQTPVQEITPDPKGGYLLRSGEQTWRARSVVLATPAYQTAELVAPFQPAIARVLATIPYPTVACVVLAYPAGLGRSVRPGFGVTIPRSQGIRTLGTIWSSCLFPQRTPAGWQVFTSTIGGATDPDLASLSEEAIVQQVQQDLNRLLDLPAAKARLLGMKVWRRAIPQYMVGYPEQWQQVTHALSQTPGLFLCSNYAEGVALGDRVEHGNRTAAAVAAYLSGGQP | + (‘+’ per each 10-fold resistance) | +++++ (until ‘+++++’ as maximal resistance) | +++++ (until ‘+++++’ as maximal resistance) | +++ (‘+’ per each 10-fold resistance) | +++++ (until ‘+++++’ as maximal resistance) | +++++ (until ‘+++++’ as maximal resistance) | +++++ (until ‘+++++’ as maximal resistance)
CyPPO19 R89A + I408R + F360M: variant of CyPPO19 PPO protein (SEQ ID NO: 1) (protein, Synthetic_PPO of Thermosynechococcus elongatus PKUAC-SCTE542 (comprising GenBank No. CP032152.1)) MSEVDVAIVGGGLSGLSLAWRLQQSAPQYSVVLLEASDRLGGNITTQTAEGFVWELGPNSFAPTPALLQLIAEVGLQSELIRGDRHLPAYIYWRGQLYPLQPTRPLALATSNLLSPWGKVRAALGALGFVPPYLGSGDESVNSFFRRHLGQEVAERLVAPFVSGVYAGDPQQLSAAAAFRRIAQLEKLGGGLIAGALHLRRQQAPKPKPPTSVQMRPGELGSFKEGLAALPRAIAQQLKAPIHLQTPVQEITPDPKGGYLLRSGEQTWRARSVVLATPAYQTAELVAPFQPAIARVLATIPYPTVACVVLAYPAGLGRSVRPGFGVLIPRSQGIRTLGTIWSSCLFPQRTPAGWQVFTSMIGGATDPDLASLSEEAIVQQVQQDLNRLLDLPAAKARLLGMKVWRRARPQYMVGYPEQWQQVTHALSQTPGLFLCSNYAEGVALGDRVEHGNRTAAAVAAYLSGGQP | + (‘+’ per each 10-fold resistance) | ++++ (‘+’ per each 10-fold resistance) | +++ (‘+’ per each 10-fold resistance) | ++ (‘+’ per each 10-fold resistance) | ++++ (‘+’ per each 10-fold resistance) | +++ (‘+’ per each 10-fold resistance) | +++ (‘+’ per each 10-fold resistance)
